Reference: patent US20250011363A1, “OPTIMIZED SHORTENED PEPTIDE THAT BINDS TO ACETYLCHOLINE RECEPTOR, AND USE THEREOF” (SKINMED CO., LTD., priority 2021, published 2025)

Biological target: acetylcholine receptor (Homo sapiens, UniProt P02708)
Test: SPR binding affinity (RU) of optimized 5mer/6mer/7mer peptides, Examples 6-7
Conditions: SPR, Resonance Units; peptides tested at 10 μM; 6mer-2 Bottom sequence
Outline: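 Peptides were tested at 10 μM by surface plasmon resonance against the receptor, with binding reported as response units. Library sequences were built from frequent (top) or infrequent (bottom) amino acid combinations in 5mer, 6mer-1 and 6mer-2 series.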

acetylcholine receptor, sequence (P02708 21-457): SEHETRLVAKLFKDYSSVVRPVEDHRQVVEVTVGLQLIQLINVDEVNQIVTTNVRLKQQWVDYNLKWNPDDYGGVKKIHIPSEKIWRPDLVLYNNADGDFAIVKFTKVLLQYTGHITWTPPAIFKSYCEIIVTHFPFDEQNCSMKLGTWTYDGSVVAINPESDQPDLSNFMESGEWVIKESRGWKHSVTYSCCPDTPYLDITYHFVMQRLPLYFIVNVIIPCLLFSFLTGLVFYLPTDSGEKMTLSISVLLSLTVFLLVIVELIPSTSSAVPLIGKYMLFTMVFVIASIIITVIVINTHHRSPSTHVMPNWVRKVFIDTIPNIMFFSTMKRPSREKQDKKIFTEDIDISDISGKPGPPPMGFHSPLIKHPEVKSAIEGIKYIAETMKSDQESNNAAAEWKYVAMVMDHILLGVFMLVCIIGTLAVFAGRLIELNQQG

Substance	Binding affinity [Ru]
6mer-2-936 (KPPAKK)	21
6mer-2-937 (RASHRR)	35
6mer-2-938 (RIEHKR)	40
6mer-2-939 (KKCARR)	22
6mer-2-940 (RNENKK)	41
6mer-2-941 (RDEDKR)	33
6mer-2-942 (KTDKRK)	22
6mer-2-943 (KIDHRR)	41
6mer-2-944 (KPEDKK)	35
6mer-2-945 (KKCERK)	42
6mer-2-946 (KPCEKK)	21
6mer-2-947 (KTNWRK)	41
6mer-2-948 (RPPFRR)	28
6mer-2-949 (RPNARR)	39
6mer-2-950 (KYNKRR)	26
6mer-2-951 (RADEKK)	42
6mer-2-952 (KYWGRR)	24
6mer-2-953 (KESVKK)	25
6mer-2-954 (KCTIRK)	32
6mer-2-955 (RMPERR)	29

Substance	Binding affinity [Ru]
6mer-2-956 (KFCWRR)	28
6mer-2-957 (RDTHRR)	40
6mer-2-958 (KFKARK)	28
6mer-2-959 (RTNARK)	35
6mer-2-960 (RDCVKR)	29
6mer-2-961 (KNTKKR)	21
6mer-2-962 (KKSNRK)	30
6mer-2-963 (KAKHRR)	37
6mer-2-964 (KCEDRK)	41
6mer-2-965 (KPWFKR)	36
6mer-2-966 (KEDAKR)	41
6mer-2-967 (RTSNKK)	35
6mer-2-968 (RHWEKK)	39
6mer-2-969 (KATHKR)	33
6mer-2-970 (KDDVRR)	27
6mer-2-971 (KEMFRK)	29
6mer-2-972 (KAMFRR)	38
6mer-2-973 (KCPIKK)	41
6mer-2-974 (RFDDRR)	38
6mer-2-975 (KKTMKK)	38

Substance	Binding affinity [Ru]
6mer-2-976 (RTTGKK)	26
6mer-2-977 (REMKRK)	30
6mer-2-978 (KEPHRR)	28
6mer-2-979 (KKAFKK)	22
6mer-2-980 (KESGKR)	34
6mer-2-981 (RCEIRK)	32
6mer-2-982 (RMHAKK)	38
6mer-2-983 (RTWHRR)	37
6mer-2-984 (KDMWKK)	43
6mer-2-985 (REMNKR)	34
6mer-2-986 (KNWARR)	27
6mer-2-987 (RCHPKK)	22
6mer-2-988 (KMCEKK)	41
6mer-2-989 (KAHNKR)	22
6mer-2-990 (RKKMKR)	41
6mer-2-991 (KCHFRR)	30
6mer-2-992 (RMHFRR)	33
6mer-2-993 (RHDVKK)	29
6mer-2-994 (KYCIKK)	41

Same assay, conditions: SPR, peptides at 10 μM; 6mer-2 Bottom sequence

Substance	Binding affinity [Ru]
6mer-2-995 (KFWEKK)	38
6mer-2-996 (RHDARK)	40
6mer-2-997 (KISFKK)	30
6mer-2-998 (KEMWKK)	43
6mer-2-999 (RATIKR)	31
6mer-2-1000 (KCHDKK)	41
6mer-2-1001 (RKKFKK)	37
6mer-2-1002 (RCNDKR)	42
6mer-2-1003 (KPEWKR)	42
6mer-2-1004 (RDTHKR)	38
6mer-2-1005 (RFKARR)	23
6mer-2-1006 (RATMRR)	30
6mer-2-1007 (RHTNKK)	42
6mer-2-1008 (RAWKKR)	38
6mer-2-1009 (KINPRK)	34
6mer-2-1010 (RANHKK)	36
6mer-2-1011 (RAEFRR)	22
6mer-2-1012 (KASAKK)	30
6mer-2-1013 (KPPDKR)	23
6mer-2-1014 (RPPMRR)	34

Substance	Binding affinity [Ru]
6mer-2-1015 (RDEMKR)	29
6mer-2-1016 (RNEEKR)	41
6mer-2-1017 (RAPVRR)	40
6mer-2-1018 (RPTKKK)	24
6mer-2-1019 (RNTWKK)	23
6mer-2-1020 (KHDKKR)	21
6mer-2-1021 (RYTPKR)	39
6mer-2-1022 (KCNPRR)	22
6mer-2-1023 (KAEFKR)	26
6mer-2-1024 (RFHNKR)	37
6mer-2-1025 (RCSHRR)	39
6mer-2-1026 (KENHRK)	33
6mer-2-1027 (KTPVKK)	32
6mer-2-1028 (KPEHRR)	41
6mer-2-1029 (KEEFKK)	40
6mer-2-1030 (RAPFKK)	28
6mer-2-1031 (RAWERK)	33
6mer-2-1032 (KETVKR)	31
6mer-2-1033 (KMDEKK)	28
6mer-2-1034 (KHSWRR)	38

Substance	Binding affinity [Ru]
6mer-2-1035 (RPPVKK)	39
6mer-2-1036 (KAKNKR)	25
6mer-2-1037 (KIHWKK)	26
6mer-2-1038 (KHWERK)	33
6mer-2-1039 (RNHFRK)	26
6mer-2-1040 (KYAWRK)	36
6mer-2-1041 (RACDKR)	22
6mer-2-1042 (KKMFRK)	36
6mer-2-1043 (RDKGKK)	40
6mer-2-1044 (KHTDKK)	41
6mer-2-1045 (RHAHRR)	41
6mer-2-1046 (RNSEKR)	39
6mer-2-1047 (RHDDKR)	28
6mer-2-1048 (RIHNRK)	22
6mer-2-1049 (KMSPRR)	26
6mer-2-1050 (KPPPRK)	26
6mer-2-1051 (RKHMRR)	24
6mer-2-1052 (KAPARK)	23
